Literature values in paper PMC10544997.
pKd: −log10 of the molar value.

Target: FcγRIIa (Homo sapiens) (UniProt P12318)
Sequence (P12318 34-317): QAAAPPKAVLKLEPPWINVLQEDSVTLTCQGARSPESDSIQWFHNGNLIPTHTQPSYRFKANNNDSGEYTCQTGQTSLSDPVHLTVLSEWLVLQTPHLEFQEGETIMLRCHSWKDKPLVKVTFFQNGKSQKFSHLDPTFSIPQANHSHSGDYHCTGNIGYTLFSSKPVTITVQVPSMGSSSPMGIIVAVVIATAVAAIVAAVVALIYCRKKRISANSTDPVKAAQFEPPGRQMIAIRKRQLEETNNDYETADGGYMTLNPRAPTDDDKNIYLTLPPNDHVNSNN

pKd: 6.00
Substance: IgG1 Fc (from UniProt P01857)
